Source: patent US20130217572A1, “SPECIFIC DELIVERY OF AGROCHEMICALS” (VRIJE UNIVERSITEIT BRUSSEL, priority 2010, published 2013)

T1: potato lectin (Solanum tuberosum, UniProt Q9S8M0)
T1 sequence (Q9S8M0 23-323): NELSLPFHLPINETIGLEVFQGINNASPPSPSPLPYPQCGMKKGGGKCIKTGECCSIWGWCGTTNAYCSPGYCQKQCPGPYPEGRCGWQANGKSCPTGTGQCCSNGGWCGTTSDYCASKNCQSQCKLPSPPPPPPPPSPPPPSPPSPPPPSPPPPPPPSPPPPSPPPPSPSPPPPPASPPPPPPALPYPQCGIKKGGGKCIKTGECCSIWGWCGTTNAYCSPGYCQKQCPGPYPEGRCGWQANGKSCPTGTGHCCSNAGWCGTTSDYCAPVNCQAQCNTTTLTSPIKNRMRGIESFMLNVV

T2: potato lectin (Sigma) (potato, UniProt Q9S8M0 23-323)
T2 construct: Bought glycoprotein, coated on ELISA plates
T2 sequence (looked up): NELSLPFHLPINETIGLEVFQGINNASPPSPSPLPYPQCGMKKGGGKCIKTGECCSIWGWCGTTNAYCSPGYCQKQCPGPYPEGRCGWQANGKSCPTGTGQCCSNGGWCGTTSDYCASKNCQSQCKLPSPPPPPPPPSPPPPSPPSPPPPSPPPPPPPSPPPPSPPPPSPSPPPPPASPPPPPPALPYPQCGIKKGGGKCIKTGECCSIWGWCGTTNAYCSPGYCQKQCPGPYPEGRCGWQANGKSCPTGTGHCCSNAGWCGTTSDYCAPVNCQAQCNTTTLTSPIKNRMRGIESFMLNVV


Key:
[1] = tested on: gum arabic; experiment: VHH binding to gum arabic in ELISA; parameters: species or system acacia tree
Description: Titration of VHH antibody fragments was performed on ELISA plates (Maxisorp, Nunc) coated with 100 μl per well 100 μg/ml gum arabic in 50 mM carbonate pH9.6. Plates were coated at 4° C. overnight and coating was continued at room temperature for 1 hour on the next day. Plates were washed three times with PBS/0.05%-TWEEN®-20 and blocked with 5% skimmed milk in PBS for 1 hour. Four-fold serial dilutions of purified VHH antibody fragments were prepared in 1% MPBS/0.05%-TWEEN®-20 in polypropylene 96-well plates. Antibody concentrations ranged from 3 μg/ml to 12 ng/ml. Antibody dilutions were transferred to the gum arabic-coated plates and VHH antibody fragments were allowed to bind for 1 hour at room temperature. Bound VHH were detected with sequential incubations with monoclonal mouse anti-histidine antibodies (Abd Serotec) and rabbit anti-mouse IgG whole molecule antibodies conjugated with alkaline phosphatase (RaM/AP) (Sigma) in 1% MPBS/0.05%-TWEEN®-20. Unbound antibodies were removed by washing three times with PBS/0.05%-TWEEN®-20 after each antibody incubation. The plates were washed an additional two times with PBS and 100 μl pNPP disodium hexahydrate substrate (Sigma) was added to each well. The absorbance at 405 nm was measured and plotted as function of antibody concentration (see Table 1).

[2] = target: T1, potato lectin; experiment: VHH binding to potato lectin in ELISA; settings: blank wells; VHH 3 μg/ml
Description: (§1) ELISA plates (Maxisorp, Nunc) coated with 100 μl per well 100 μg/ml potato lectin (Sigma) in PBS were coated at 4° C. overnight and coating was continued at room temperature for 1 hour on the next day. Plates were washed three times with PBS/0.05%-TWEEN®-20 and blocked with 5% skimmed milk in PBS for 1 hour. VHH (3 μg/ml) were transferred to the potato lectin-coated plates and VHH antibody fragments were allowed to bind for 1 hour at room temperature. Bound VHH were detected with sequential incubations with monoclonal mouse anti-histidine antibodies (Abd Serotec) and rabbit anti-mouse IgG whole molecule antibodies conjugated with alkaline phosphatase (RaM/AP) (Sigma) in 1% MPBS/0.05%-TWEEN®-20. Unbound antibodies were removed by washing three times with PBS/0.05%-TWEEN®-20 after each antibody incubation. The plates were washed an additional two times with PBS and 100 μl pNPP disodium hexahydrate substrate (Sigma) was added to each well and the absorbance at 405 nm was measured (see Table 2).

[3] = target: T2, potato lectin (Sigma); experiment: ELISA, potato lectin coated at 100 ug/ml, VHH at 3 ug/ml, anti-histidine detection
Description: as §1

[4] = tested on: potato leaf surface; experiment: VHH binding to leaf discs (microscopy); parameters: species or system potato (variety Désirée); settings: 5 μg/ml in PBS, anti-histidine Alexa-488 detection
Description: VHH binding to non-fixed leaf discs of potato (variety Désirée), black nightshade, grass, wheat or azalea was investigated. For comparison, binding of CBM3a to non-fixed leaf discs of potato (variety Désirée) was analyzed in parallel. Leaf discs were prepared by punching a fresh potato leaf with a 5 mm belt hole puncher tool. Leaf discs were put immediately in wells of a 96-well plate containing 200 μl per well 5% MPBS or PBS, and incubated for 30 minutes. Leaf discs were transferred to solutions containing 5 μg/ml VHH antibody fragment, respectively 5 μg/ml CBM3a in 2% MPBS or PBS and incubated for 60-90 minutes. Unbound VHH or CBM3a proteins were removed by washing three times with 2% MPBS or PBS. Bound VHH or CBM3a proteins were detected with incubation with monoclonal mouse anti-histidine antibodies directly conjugated with Alexa-488 fluorescent dye (Abd Serotec) in 1% MPBS for 1 hour. Unbound antibodies were removed by washing three times with PBS. Leaf discs were put on glass slides, covered with cover slips, and analyzed by microscopy or on a macrozoom microscope system (Nikon) or a SP5 confocal microscope system (Leica).

[5] = Table 2, gum arabic coat, VHH 3 μg/ml
[6] = [VHH] 0.0117188 μg/ml (0.78125 nM), gum arabic 100 μg/ml
[7] = [VHH] 0.04688 μg/ml (3.125 nM), gum arabic 100 μg/ml
[8] = [VHH] 0.1875 μg/ml (12.5 nM), gum arabic 100 μg/ml
[9] = [VHH] 0.75 μg/ml (50 nM), gum arabic 100 μg/ml
[10] = [VHH] 3 μg/ml (200 nM), gum arabic 100 μg/ml
[11] = [VHH] 3 μg/ml (200 nM), no gum arabic coat (−)

Molecule	absorbance at 405 nm [1, 5]	absorbance at 405 nm [1, 6]	absorbance at 405 nm [1, 7]	absorbance at 405 nm [1, 8]	absorbance at 405 nm [1, 9]	absorbance at 405 nm [1, 10]	absorbance at 405 nm [1, 11]	absorbance at 405 nm [2]	absorbance at 405 nm [3]	binding to native potato leaf surface [4]	binding to native potato leaf surface ([4]; listed as 5D4)
VHH 5C4 (VHH, Hexahistidine-tagged) VHH: QVQLQESGGGLVQPGGSLRLSCAASGFSLRYFGIGWFRQVAGKEREPVSCSNVRDGNTYYADSVKGRFTISRDNVRNTLYLQMNSLKPEDTAVYSCATTDCEATTWGTYRGYFGQGTQVTVSS	0.873	0.166	0.386	1.036	1.710	2.010	0.082	0.071	4		
VHH 5G5 (VHH, Hexahistidine-tagged) VHH: QVQLQESGGGLVQPGGSLRLSCAASGFSLRYFGIGWFRQAAGKEREGISCSNVRDGNTYYADSVKGRFTISRDNVRNMLYLQMNNLKPDDTAVYSCATTDCEATTWGTYRGYFGQGTQVTVSS	0.751	0.125	0.317	0.906	1.611	1.966	0.077	0.073	4		
VHH 7D2 (VHH, Hexahistidine-tagged) VHH: QVQLQESGGGLVQPGRSLKVACAAAGFSLRYYGIGWFRQAPGKEREAVSCTSANDGSTYYRDSVRGRFTISRDDGKNTVYLQMNRLKPEDTAVYYCATTDCDATSWGTWINYYGQGTQVTVSS	0.274	0.083	0.136	0.347	0.906	1.427	0.074	0.072	4		
VHH5F5: plant-binding VHH, listed among SEQ ID NO:1-42 (protein, listed as Lama glama, 5F5) VHH: QVQLQESGGGLVQPGGSLRLSCAASGFPLGLYGIGWFRQAPGKEREAVSCDSVDDGSTNYLDSVKGRFTISRDNAKNMVYLQMNSLKPEDTAVYYCATTDCDAKAWGTWTNYRGQGTQVTVSS		0.093	0.100	0.191	0.476	0.959	0.090				
VHH5E5: plant-binding VHH, listed among SEQ ID NO:1-42 (protein, listed as Lama glama, 5E5) VHH: QVQLQESGGGLVQPGGSLTLSCTASGFAMRRFGIGWFRQVVGKEREGVSCSNVHDGSTYYANYVKGRFTIVRDDTKNMLYLHMNSLRAEDTGVYSCATTDCEATAWGTYRGYFGQGTQVTVSS		0.074	0.088	0.185	0.569	1.194	0.073				
VHH7A2: plant-binding VHH, listed among SEQ ID NO:1-42 (protein, listed as Lama glama, 7A2) VHH: QVQLQESGGGSVHPGGSLTLSCLASGFSLSNYGMGWFRQAPGKEREAVSCTSVPNGHIYYAESVKGRFTIVRDNAGNSVYLQMNSLKPEDAANYFCATTDCEAAHWGTWVNYYGQGTQVTVSS		0.088	0.101	0.216	0.677	1.391	0.075				
VHH 5D4 (VHH, Hexahistidine-tagged) VHH: QVQLQESGGGLVQPGGSLRLSCAASGFDMRRFGIGWFRQVAGKEREGVSCSNVHDGTTYYTNDVKGRFTIVRDNTKNMLYLQMNKLRPEDTAVYSCATTDCEATAWGTYRGYFGQGTQVTVSS	0.530	0.087	0.134	0.378	0.840	1.280	0.075	0.072	4	binding leaf surface, stomata, glandular trichomes, and leaf hairs	clearly binding to trichomes, stomata and cuticle
VHH7C2: plant-binding VHH, listed among SEQ ID NO:1-42 (protein, listed as Lama glama, 7C2) VHH: QVQLQESGGGLVQPGGSLRLSCAAFGFALANYGIGWFRQAPGKDRERVSCDSVDDGSTHYSNSVQGRFTIIRDNAKNTVFLQMNSLKAEDTAVYYCATTDCDATTWGTWINYRGQGTQVTVSS		0.088	0.092	0.090	0.194	0.461	0.077				
